Measurements taken from the DeepSol protein solubility set.

Experiment: soluble on expression in E. coli; label from the status in PepcDB or PDB records

Row | Sequence | soluble on expression in E. coli
1 | AIAGSRGVLSIIFDLDNTLIDTAGAGRTAIQKVCELLKSTHVQESHIRDICERFLRKLLQESFDPSEGKTIDDVRIQHWCEALQETPGTDPDPALASRCYYTWKNTRSQALSLSSEVRALLEELQKNYKLLLLTNGDTQTQREKIEAVRCEGLFSLVVVGGDRPEQKPARSIFTHCFESAGVRPQDCIMVGDSLTTDIQGGINAGVRATVWINAGSKSLPQDSVTPDYTLPTVLHLNEVLAQLA | soluble
2 | AIAGTAFPTMAEVVAEVAEMPTQMSPGAVEMSTPMSAEMMEMSTEVTEMTPGEALASSLFFQHHQFMCSECGSLYNTLEEVLSHQEQHMLAVSEEEALTTQNVGLEPELVPGAEGPFQCGECSQLILSPGELLAHQDAHLRESANQIQYQCWDCQELFPSPELWVAHRKAQHLSATVAEPPVPPPLPPPTPLPPPSPPSEVKMEPYECPECSTLCATPEEFLEHQGTHFDSLEKEERNGLEEEEEDDEEDEEDDEEMEDEEAMAEVGDDAVGGDESTAGWAQGCGDCPQHQPSAGARRQHRRTAHSPASATHPFHCSQCQRSFSSANRLQAHGRAHVGGTHECTTCSKVFKKAASLEQHLRLHRGEARYLCVDCGRGFGTELTLVAHRRAHTANPLHRCRCGKTFSNMTKFLYHRRTHAGKSGAPPTGATAPPAPAEPTPPPPPPAPPAQLPCPQCSKSFASASRLSRHRRAVHGPPERRHRCGVCGKGFKKLIHVRNHLRTHTGERPFQCHSCGKTFASLANLSRHQLTHTGARPYQCLDCGKRFTQSSNLQQHRRLHLRPVAFARAPRLPITGLYNKSPYYCGTCGRWFRAMAGLRLHQRVHARARTLTLQPPRSPSPAPPPPPEPQQTIMCTELGETIAIIETSQPLALEDTLQLCQAALGASEAGGLLQLDTAFV | soluble
3 | AIAIRTKQSEAKSKGDTLRQLELAALMTHCNMLITHQQLALQAAMKLAYATKNYLYALAFAKRLLELAPNEEMERTAKKVMQFCERNPNNQNQLDYDIEQSNFAIDAGRLKPCIQPPTKSCVYCGACYDESWHSMTCVVCQVAQD | soluble
4 | AIALVGPAPTTDGSAENTLNEKRLVHGSIAFWLGPRAPQTKTHRWTVYVRGARDPLEDLSLYIQKVEFVLHESFADPVRVVKEPPFCLTEHGWGEFEVIIRLFPISDPDKPVEMYHPLRLFPSVGQELTEKPVVSEHLDVLVFSQPAPEVERALHRSDVARMPSDCWGDLMPLFGGDLHQVEEEDLRKVQQARERVRQQIQATRLQYEALTAELARARTHALHRELS | soluble
5 | AIAPAKSPSTRKKRARTKDEDEENVDTGNQTTAPTFRDKNLQLVHDFLASQNRPFSLQNILDSLANKGDMKKAALDKALTELVTSEYVTCKEYGKAKLYLIRQKNIALPSAEETAALDSRLETLANELEELSAECQVLEAKISELSAQPRTEEAKERVALLETETATIDERIEKLQVHCAGYDSSRRQYIQQQHERALKALRLRRSRARQIILQMAEGMERKPRELADEIGIESDSDDWLTASRSVVSNARSKAAV | soluble
6 | AIAREWKSQDAWKQHSLRLCFGVWPGTEFLHRPRAVHRRSGVVCSQMQTEDSHPETPQVPKESLQEEKDSSPATDASFIQSQDGKTVFLDRRTERRIQRGFVLTERGPRSIWKPAGTSSQRNERVPRRAAARGGAGPPDTTPQLATVRVLVLGANHVAQRLAELLSSHSRVCGCYFVSETTDEAAIESMKKYAYALPLRSALNDDEVVRVAEWVLADYVFLVPTGETHDDGVSLKDKERLERTLAQNRVTFMDENLTGLLLENPSLIDALFRARDSLEA | soluble
7 | AIASDEPKLSERSLHKFENVRIIIKDENKTCFQGELNIGEDWFCLLSEIDPSNSLRVNAKDLLLHAICQRDEHCEKPSIYCQVQGESDEDQYETIYIVPEESSQVEKIFETFCDLVRRTPVPLTDEEGSDGEWYGNVPWSVGNCDSEQFEDAEETDTQL | soluble
8 | AIASGAYDESAMSDETTDSFWEVGNYKRTVKRIEDGHRLCNDMMSCIQERAKIEKAYSQQLTDWSKRWRQLVERGPQYGTLERAWLAVMTEAEKVSELHQEVKNNLLNEDLEKVKNWQKDAYHKQMMGGFKETKEADEGFRKAQKPWAKKLKELETAKKTYHMACKEEKIASAREANSKGEASVTTDQQKKLQEKVDKCKNDVQKAKEKYEKSLDELNKCTPQYMENMEVVFDQCQQFEEKRLNFLREVLLDTKRHLNLTESQSYATVYRELERTIVSASAQEDLKWFSSVHGPGMHMNWPQFEEFNPDLSHAISKKEKVKRNHDGVTLTQVTHGAEHGTPQTGDRGSVSSYEKNQQYSAEWSDDEQPPTAAQSASETNGGNPFEEDSKGVRVRALYDYEGQEQDELTFKAGDELTKLEDEDEQGWCKGRLDSGQLGLYPANYVEPV | soluble
9 | AITGIFFGSDTGNTENIAKMIQKQLGKDVADVHDIAKSSKEDLEAYDILLLGIPTWYYGEAQCDWDDFFPTLEEIDFNGKLVALFGCGDQEDYAEYFCDALGTIRDIIEPRGATIVGHWPTAGYHFEASKGLADDDHFVGLAIDEDRQPELTAERVEKWVKQISEELHLDEILNA | soluble
10 | AKADSEQGNGEDKGTGTKGDGTGRGEGSGKGSGGVKGEHGEGAGSSKGNPLRANGSIPRPAYPTLSMENDEQGTVVLSVLVSPGGHVESVKIVKSSGFSRLDNAARKAAQNGHFQANAWTEFKVPVKFELN | soluble
11 | AKYYNEPCHTFNEYLLIPGLSTVDCIPSNVNLSTPLVKFQKGQQSEINLKIPLVSAIMQSVSGEKMAIALAREGGISFIFGSQSIESQAAMVHAVKNFKDSQKRYLVGAGINTRDFRERVPALVEAGADVLCIDSSDGFSEWQKITIGWIRDKYGDKVKVGAGNIVDGEGFRYLADAGADFIKIGIGGGSICITREQKGIGRGQATAVIDVVAERNKYFEETGIYIPVCSDGGIVYDYHMTLALAMGADFIMLGRYFARFEESPTRKVTINGSVMKEYWGEGSSRARNWQRYDLGGKQKLSFEEGVDSYVPYAGKLKDNVEASLNKVKSTMCNCGALTIPQLQSKAKITLVSSVSIVEGGAHDVIVKDRINDYHPK | soluble
12 | AMACWAQSQGYNCCNNPSSTKVEYTDASGQWGVQNGQWCGIDYSYGQNQGNESCTGNGSYPCCNTCQATYTDGDGDWAFENGNWCGIKNSCKQQPQNNNQ | soluble
13 | AMASASLCFLETENISKMAQILVDRCVEITNASFGFLYELVFGGDARILAVSSTAAVPAGGLCAQVKGHIEREGFFLVTPSDGLLFEPVKAGTTVLTNNPTTLDHLICRDSGNLGQINSFLGTPLKVGSRVVGMIGLTDRPDGFTDMERREIEAFAQTAALALHSARAEIEHKK | not soluble
14 | AMDIRQVTETIAMIEEQNFDIRTITMGISLLDCIDPDINRAAEKIYQKITTKAANLVAVGDEIAAELGIPIVNKRVSVTPISLIGAATDATDYVVLAKALDKAAKEIGVDFIGGFSALVQKGYQKGDEILINSIPRALAETDKVCSSVNIGSTKSGINMTAVADMGRIIKETANLSDMGVAKLVVFANAVEDNPFMAGAFHGVGEADVIINVGVSGPGVVKRALEKVRGQSFDVVAETVKKTAFKITRIGQLVGQMASERLGVEFGIVDLSLAPTPAVGDSVARVLEEMGLETVGTHGTTAALALLNDQVKKGGVMACNQVGGLSGAFIPVSEDEGMIAAVQNGSLNLEKLEAMTAICSVGLDMIAIPEDTPAETIAAMIADEAAIGVINMKTTAVRIIPKGKEGDMIEFGGLLGTAPVMKVNGASSVDFISRGGQIPAPIHSFKN | soluble
15 | ANIQSFSFKNFNSPSFILQGDATVSSGKLQLTKVKENGIPTPSSLGRAFYSSPIQIYDKSTGAVASWATSFTVKISAPSKASFADGIAFALVPVGSEPRRNGGYLGVFDSDVYNNSAQTVAVEFDTLSNSGWDPSMKHIGIDVNSIKSIATVSWDLANGENAEILITYNAATSLLVASLVHPSRRTSYILSERVDITNELPEYVSVGFSATTGLSEGYIETHDVLSWSFASKLPDDSTAEPLDLASYLVRNVL | soluble
16 | APQGINQFALLLNKQDTLTEFDTLVPGRFQAMRDGTRVTYTEELSKDRGELAGIFISQKDLNSSNQERGISILVAEKGTQNIQADGSRYLILHNGYRYDGNPGQANYRAIQYDTYGVMLPKPEASSEVSERDAVPTADLFGSDNPRYQAELQWR | not soluble
17 | APRTLYDKIWDDHVVHQSEDGTCLLYIDRHLVHEVTSPQAFEGLRMTGRKVRAPEKTIAVPDHNVPTTEGRDTKIDNEESRIQVEALDKNARDFGINYYPVSDIRQGIVHIVGPEQGWTLPGMTVVCGDSHTATHGAFGALAHGIGTSEVEHVLATQTLIQKKSKN | not soluble
18 | APTPAQMPSPTSFSDSIKQLAAETLPKYMQQLNSLDAEMLQKNHDQFATGSGPLRGSITQCQGLMQFCGGELQAEASAILNTPVCGIPFSQWGTIGGAASAYVASGVDLTQAANEIKGLAQQMQKLLSLMHHHHHH | soluble
19 | APVGPLGQVKLTVWYHSDEQKLISIIHSCRALRQNGRDLPDPYVSVLLLPDKNRSTKRKTPQKKRTLNPEFNERFEWDLPLDGTLRRKLDVSVKSNSSFMSRERELLGKVQLDLAEIDLSQGAAQWYDLMDDRDKGGS | soluble
20 | AQVPASGKLLVDPRYSTNDQEESILQDIITRFPNVVLMKQTAQLRAMMTIIRDKETPKEEFVFYADRLIRLLIEEALNELPFQKKEVTTPLDVSYHGVSFYSKICGVSIVRAGESMESGLRAVCRGVRIGKILIQRDETTAEPKLIYEKLPADIRERWVMLLDPMCATAGSVCKAIEVLLRLGVKEERIIFVNILAAPQGIERVFKEYPKVRMVTAAVDICLNSRYYIVPGIGDFGDRYFGTM | soluble
21 | ARAEQFTTSLLSIISNNNLLAKATSESIMGAAMKAAVLNLPIEPSLGFAYVVPYNRNYKDGNRWITVNEAQFQIGYRGLIQLAQRSGQVRNIEHGIIYEEEFLGYDKIRGQLKLTGDYVDSGVVKGYFASLELISGFYKMIFWPKEKVYEHAKKYSKTFDKKTGDFKPGTPWATEFDPMAIKTLLKELLSKYAPLSVEMQDALEADNADSTIVIPKDVTPQETNSLDDLIGTQ | not soluble
22 | ARFMAVSSELKDDTRTYTVAGQVFFASSDRFMSHFDFREAVERVVIDVTHAHFWDITSVSALDRVVIKFRREGTEVEIKGMNDATRTLVDRFGVHDKPEEVEKLMGGH | not soluble
23 | ARIRAPQEATVKEVHDAPAVRGSIIANMLQEHDNPFTLYPYDTNYLIYTQTSDLNKEAIASYDWAENARKDEVKFQLSLAFPLWRGILGPNSVLGASYTQKSWWQLSNSEESSPFRETNYEPQLFLGFATDYRFAGWTLRDVEMGYNHDSNGRSDPTSRSWNRLYTRLMAENGNWLVEVKPWYVVGNTDDNPDITKYMGYYQLKIGYHLGDAVLSAKGQYNWNTGYGGAELGLSYPITKHVRLYTQVYSGYGESLIDYNFNQTRVGVGVMLNDLF | soluble
24 | ASASYYEQYHSLNEIYSWIEFITERHPDMLTKIHIGSSFEKYPLYVLKVSGKEQAAKNAIWIDCGIHAREWISPAFCLWFIGHITQFYGIIGQYTNLLRLVDFYVMPVVNVDGYDYSWKKNRMWRKNRSFYANNHCIGTDLNRNFASKHWCEEGASSSSCSETYCGLYPESEPEVKAVASFLRRNINQIKAYISMHSYSQHIVFPYSYTRSKSKDHEELSLVASEAVRAIEKTSKNTRYTHGHGSETLYLAPGGGDDWIYDLGIKYSFTIELRDTGTYGFLLPERYIKPTCREAFAAVSKIAWHVIRNV | soluble
25 | ATALAGSNGVCIAYYITDGRNPTFKLKDIPDKVDMVILFGLKYWSLQDTTKLPGGTGMMGSFKSYKDLDTQIRSLQSRGIKVLQNIDDDVSWQSSKPGGFASAAAYGDAIKSIVIDKWKLDGISLDIEHSGAKPNPIPTFPGYAATGYNGWYSGSMAATPAFLNVISELTKYFGTTAPNNKQLQIASGIDVYAWNKIMENFRNNFNYIQLQSYGANVSRTQLMMNYATGTNKIPASKMVFGAYAEGGTNQANDVEVAKWTPTQGAKGGMMIYTYNSNVSYANAVRDAVKN | soluble
